{"source": "patent US9249224B2", "about": "(RINAT NEUROSCIENCE CORP., priority 2011, dated 2016)", "molecules": {"B1": {"name": "SS1: humanized GHR antagonist antibody; VL SEQ ID NO: 7, VH SEQ ID NO: 8; hIgG2Δa heavy chain SEQ ID NO: 134, light chain SEQ ID NO: 135 (antibody)", "heavy": "EVQLVESGGGLVKPGGSLRLSCAASGFTFSDAWMDWVRQAPGKGLEWVAEIRSKANYHATYYAESVKGRFTISRDDSKNTLYLQMNSLKTEDTAVYYCTLIRDYWGQGTLVTVSSASTKGPSVFPLAPCSRSTSESTAALGCLVKDYFPEPVTVSWNSGALTSGVHTFPAVLQSSGLYSLSSVVTVPSSNFGTQTYTCNVDHKPSNTKVDKTVERKCCVECPPCPAPPVAGPSVFLFPPKPKDTLMISRTPEVTCVVVDVSHEDPEVQFNWYVDGVEVHNAKTKPREEQFNSTFRVVSVLTVVHQDWLNGKEYKCKVSNKGLPSSIEKTISKTKGQPREPQVYTLPPSREEMTKNQVSLTCLVKGFYPSDIAVEWESNGQPENNYKTTPPMLDSDGSFFLYSKLTVDKSRWQQGNVFSCSVMHEALHNHYTQKSLSLSPGK", "light": "EIVLTQSPGTLSLSPGERATLSCTATSSVSSSYLNWYQQKPGQAPRLLIYSTSNLASGIPDRFSGSGSGTDFTLTISRLEPEDFAVYYCHQYHRSTPTFGGGTKVEIKRTVAAPSVFIFPPSDEQLKSGTASVVCLLNNFYPREAKVQWKVDNALQSGNSQESVTEQDSKDSTYSLSSTLTLSKADYEKHKVYACEVTHQGLSSPVTKSFNRGEC", "modifications": "Humanized and/or affinity matured antibody sequence"}}, "system": "IGF-1", "assay": "Serum IGF-1 levels in cynomolgus monkeys after a single antibody dose", "assay_type": "in vivo, cynomolgus monkey", "description": "Serum samples were analyzed for changes in IGF-1 levels compared to baseline using an R&D Systems™ Quantikine™ human IGF-1 immunoassay kit (cat. #DG100).\nTo determine if GHR antagonist monoclonal antibodies can affect IGF-1, IGFBP-3, and ALS levels in vivo by inhibiting the function of GHR, the effect of humanized anti-human GHR antibody SS1 was tested in cynomolgus monkeys. A dose-response study was conducted to test for changes in IGF-1, IGFBP-3, and ALS levels following a single dose of SS1. Eight naïve female cynomolgus monkeys were injected intravenously with a single dose of SS1 or negative control human IgG2, in 1×PBS 0.01% Tween™ 20. Two monkeys were dosed with 30 mg/kg SS1, two were dosed with 10 mg/kg SS1, two were dosed with 3 mg/kg SS1, and two were dosed with 30 mg/kg negative control human IgG2Δa on Day 1. Serum samples were taken from all animals at the following timepoints: pre-dose, 24 h, 48 h, 72 h, 120 h, 144 h, 192 h, 240 h, 336 h, 528 h, 696 h. Serum was also taken from the 30 mg/kg SS1 and negative control treated animals at 864 h post-dose.\nSix naïve female cynomolgus monkeys were injected either intravenously or subcutaneously with a single dose of […] or negative control human IgG2Δa in 1×PBS 0.01% Tween™ 20. Two monkeys were dosed with 3 mg/kg SS1 intravenously, two were dosed with 3 mg/kg SS1 subcutaneously, and two were dosed with 3 mg/kg negative control human IgG2Δa subcutaneously on Day 1. Serum samples were taken from all animals at the following timepoints: pre-dose, 24 h, 72 h, 120 h, 168 h, 216 h, 264 h, 312 h, 360 h, 408 h, 456 h and 504 h."}
{"molecule": "B1", "values": [{"measurement": "serum IGF-1 levels (% change from baseline)", "setting": "Table 10, cynomolgus monkeys, SS1 3 mg/kg IV single dose, 24 h post-injection", "result": "−43.6 +/− 0.5%"}, {"measurement": "serum IGF-1 levels (% change from baseline)", "setting": "Table 10, cynomolgus monkeys, SS1 3 mg/kg IV single dose, 48 h post-injection", "result": "−66.6 +/− 1.1%"}, {"measurement": "serum IGF-1 levels (% change from baseline)", "setting": "Table 10, cynomolgus monkeys, SS1 3 mg/kg IV single dose, 72 h post-injection", "result": "−67.1 +/− 1.6%"}, {"measurement": "serum IGF-1 levels (% change from baseline)", "setting": "Table 10, cynomolgus monkeys, SS1 3 mg/kg IV single dose, 120 h post-injection", "result": "−76.2 +/− 7.9%"}, {"measurement": "serum IGF-1 levels (% change from baseline)", "setting": "Table 10, cynomolgus monkeys, SS1 3 mg/kg IV single dose, 144 h post-injection", "result": "−68.4 +/− 1.1%"}, {"measurement": "serum IGF-1 levels (% change from baseline)", "setting": "Table 10, cynomolgus monkeys, SS1 3 mg/kg IV single dose, 192 h post-injection", "result": "−65.2 +/− 3.0%"}, {"measurement": "serum IGF-1 levels (% change from baseline)", "setting": "Table 10, cynomolgus monkeys, SS1 3 mg/kg IV single dose, 240 h post-injection", "result": "−34.5 +/− 17.8%"}, {"measurement": "serum IGF-1 levels (% change from baseline)", "setting": "Table 10, cynomolgus monkeys, SS1 3 mg/kg IV single dose, 336 h post-injection", "result": "64.2 +/− 0.6%"}, {"measurement": "serum IGF-1 levels (% change from baseline)", "setting": "Table 10, cynomolgus monkeys, SS1 3 mg/kg IV single dose, 528 h post-injection", "result": "85.1 +/− 46.0%"}, {"measurement": "serum IGF-1 levels (% change from baseline)", "setting": "Table 10, cynomolgus monkeys, SS1 3 mg/kg IV single dose, 696 h post-injection", "result": "49.2 +/− 11.3%"}, {"measurement": "serum IGF-1 levels (% change from baseline)", "setting": "Table 10, cynomolgus monkeys, SS1 10 mg/kg IV single dose, 24 h post-injection", "result": "−43.4 +/− 2.2%"}, {"measurement": "serum IGF-1 levels (% change from baseline)", "setting": "Table 10, cynomolgus monkeys, SS1 10 mg/kg IV single dose, 48 h post-injection", "result": "−62.6 +/− 5.5%"}, {"measurement": "serum IGF-1 levels (% change from baseline)", "setting": "Table 10, cynomolgus monkeys, SS1 10 mg/kg IV single dose, 72 h post-injection", "result": "−67.1 +/− 4.7%"}, {"measurement": "serum IGF-1 levels (% change from baseline)", "setting": "Table 10, cynomolgus monkeys, SS1 10 mg/kg IV single dose, 120 h post-injection", "result": "−73.5 +/− 2.1%"}, {"measurement": "serum IGF-1 levels (% change from baseline)", "setting": "Table 10, cynomolgus monkeys, SS1 10 mg/kg IV single dose, 144 h post-injection", "result": "−76.0 +/− 0.1%"}, {"measurement": "serum IGF-1 levels (% change from baseline)", "setting": "Table 10, cynomolgus monkeys, SS1 10 mg/kg IV single dose, 192 h post-injection", "result": "−74.0 +/− 0.2%"}, {"measurement": "serum IGF-1 levels (% change from baseline)", "setting": "Table 10, cynomolgus monkeys, SS1 10 mg/kg IV single dose, 240 h post-injection", "result": "−70.9 +/− 1.9%"}, {"measurement": "serum IGF-1 levels (% change from baseline)", "setting": "Table 10, cynomolgus monkeys, SS1 10 mg/kg IV single dose, 336 h post-injection", "result": "−61.4 +/− 0.6%"}, {"measurement": "serum IGF-1 levels (% change from baseline)", "setting": "Table 10, cynomolgus monkeys, SS1 10 mg/kg IV single dose, 528 h post-injection", "result": "25.7 +/− 11.8%"}, {"measurement": "serum IGF-1 levels (% change from baseline)", "setting": "Table 10, cynomolgus monkeys, SS1 10 mg/kg IV single dose, 696 h post-injection", "result": "31.7 +/− 15.2%"}, {"measurement": "serum IGF-1 levels (% change from baseline)", "setting": "Table 10, cynomolgus monkeys, SS1 30 mg/kg IV single dose, 24 h post-injection", "result": "−43.2 +/− 3.0%"}, {"measurement": "serum IGF-1 levels (% change from baseline)", "setting": "Table 10, cynomolgus monkeys, SS1 30 mg/kg IV single dose, 48 h post-injection", "result": "−63.2 +/− 5.0%"}, {"measurement": "serum IGF-1 levels (% change from baseline)", "setting": "Table 10, cynomolgus monkeys, SS1 30 mg/kg IV single dose, 72 h post-injection", "result": "−68.5 +/− 5.8%"}, {"measurement": "serum IGF-1 levels (% change from baseline)", "setting": "Table 10, cynomolgus monkeys, SS1 30 mg/kg IV single dose, 120 h post-injection", "result": "−75.2 +/− 5.2%"}, {"measurement": "serum IGF-1 levels (% change from baseline)", "setting": "Table 10, cynomolgus monkeys, SS1 30 mg/kg IV single dose, 144 h post-injection", "result": "−77.5 +/− 5.6%"}, {"measurement": "serum IGF-1 levels (% change from baseline)", "setting": "Table 10, cynomolgus monkeys, SS1 30 mg/kg IV single dose, 192 h post-injection", "result": "−77.2 +/− 3.3%"}, {"measurement": "serum IGF-1 levels (% change from baseline)", "setting": "Table 10, cynomolgus monkeys, SS1 30 mg/kg IV single dose, 240 h post-injection", "result": "−74.8 +/− 3.4%"}, {"measurement": "serum IGF-1 levels (% change from baseline)", "setting": "Table 10, cynomolgus monkeys, SS1 30 mg/kg IV single dose, 336 h post-injection", "result": "−73.3 +/− 0.7%"}, {"measurement": "serum IGF-1 levels (% change from baseline)", "setting": "Table 10, cynomolgus monkeys, SS1 30 mg/kg IV single dose, 528 h post-injection", "result": "−73.0 +/− 0.9%"}, {"measurement": "serum IGF-1 levels (% change from baseline)", "setting": "Table 10, cynomolgus monkeys, SS1 30 mg/kg IV single dose, 696 h post-injection", "result": "−70.4 +/− 1.1%"}, {"measurement": "serum IGF-1 levels (% change from baseline)", "setting": "Table 10, cynomolgus monkeys, SS1 30 mg/kg IV single dose, 864 h post-injection", "result": "−8.8 +/− 2.9%"}, {"measurement": "serum IGF-1 levels (% change from baseline)", "setting": "Table 13, cynomolgus monkeys, SS1 3 mg/kg IV single dose, 24 hour post-injection", "result": "−35 +/− 4.4%"}, {"measurement": "serum IGF-1 levels (% change from baseline)", "setting": "Table 13, cynomolgus monkeys, SS1 3 mg/kg IV single dose, 72 hour post-injection", "result": "−64.8 +/− 2.7%"}, {"measurement": "serum IGF-1 levels (% change from baseline)", "setting": "Table 13, cynomolgus monkeys, SS1 3 mg/kg IV single dose, 120 hour post-injection", "result": "−71.6 +/− 1.8%"}, {"measurement": "serum IGF-1 levels (% change from baseline)", "setting": "Table 13, cynomolgus monkeys, SS1 3 mg/kg IV single dose, 168 hour post-injection", "result": "−70.2 +/− 2.7%"}, {"measurement": "serum IGF-1 levels (% change from baseline)", "setting": "Table 13, cynomolgus monkeys, SS1 3 mg/kg IV single dose, 216 hour post-injection", "result": "−64.5", "unit": "%"}, {"measurement": "serum IGF-1 levels (% change from baseline)", "setting": "Table 13, cynomolgus monkeys, SS1 3 mg/kg IV single dose, 264 hour post-injection", "result": "−36.0", "unit": "%"}, {"measurement": "serum IGF-1 levels (% change from baseline)", "setting": "Table 13, cynomolgus monkeys, SS1 3 mg/kg IV single dose, 312 hour post-injection", "result": "−30.3", "unit": "%"}, {"measurement": "serum IGF-1 levels (% change from baseline)", "setting": "Table 13, cynomolgus monkeys, SS1 3 mg/kg IV single dose, 360 hour post-injection", "result": "−27.8", "unit": "%"}, {"measurement": "serum IGF-1 levels (% change from baseline)", "setting": "Table 13, cynomolgus monkeys, SS1 3 mg/kg SQ single dose, 24 hour post-injection", "result": "−46.7 +/− 9.9%"}, {"measurement": "serum IGF-1 levels (% change from baseline)", "setting": "Table 13, cynomolgus monkeys, SS1 3 mg/kg SQ single dose, 72 hour post-injection", "result": "−62.5 +/− 2.5%"}, {"measurement": "serum IGF-1 levels (% change from baseline)", "setting": "Table 13, cynomolgus monkeys, SS1 3 mg/kg SQ single dose, 120 hour post-injection", "result": "−68.7 +/− 2.8%"}, {"measurement": "serum IGF-1 levels (% change from baseline)", "setting": "Table 13, cynomolgus monkeys, SS1 3 mg/kg SQ single dose, 168 hour post-injection", "result": "−65.6 +/− 4.1%"}, {"measurement": "serum IGF-1 levels (% change from baseline)", "setting": "Table 13, cynomolgus monkeys, SS1 3 mg/kg SQ single dose, 216 hour post-injection", "result": "−60.7", "unit": "%"}, {"measurement": "serum IGF-1 levels (% change from baseline)", "setting": "Table 13, cynomolgus monkeys, SS1 3 mg/kg SQ single dose, 264 hour post-injection", "result": "−40.9", "unit": "%"}, {"measurement": "serum IGF-1 levels (% change from baseline)", "setting": "Table 13, cynomolgus monkeys, SS1 3 mg/kg SQ single dose, 312 hour post-injection", "result": "−15.3", "unit": "%"}, {"measurement": "serum IGF-1 levels (% change from baseline)", "setting": "Table 13, cynomolgus monkeys, SS1 3 mg/kg SQ single dose, 360 hour post-injection", "result": "−4.2", "unit": "%"}, {"measurement": "time until which serum IGF-1 remained below 60% baseline levels", "setting": "cynomolgus monkeys, 3 mg/kg SS1 either SQ or IV", "result": "about 216 hour"}, {"measurement": "time until which serum IGF-1 remained substantially lower than baseline", "setting": "cynomolgus monkeys, SS1 3 mg/kg IV single dose", "result": 240, "unit": "h"}, {"measurement": "time until which serum IGF-1 remained substantially lower than baseline", "setting": "cynomolgus monkeys, SS1 10 mg/kg IV single dose", "result": 336, "unit": "h"}, {"measurement": "time until which serum IGF-1 remained substantially lower than baseline", "setting": "cynomolgus monkeys, SS1 30 mg/kg IV single dose", "result": 696, "unit": "h"}, {"measurement": "serum IGF-1 decrease below baseline levels", "setting": "cynomolgus monkeys, single IV dose of 3, 10 or 30 mg/kg SS1, by 120 hours", "result": "about 75%"}, {"measurement": "serum IGF-1 decrease below control", "setting": "cynomolgus monkeys, single dose 3 mg/kg SS1 subcutaneous (SC) or intravenous (IV), by 72 hours", "result": "about 63%"}, {"measurement": "effect on serum IGF-1 levels in cynomolgus monkeys", "setting": "single IV dose, dose-response", "result": "dose dependently reduces serum IGF-1 levels"}]}
